In PMC1570500:

Target: syntaxin 1 (rat (endogenous in PC12)) (UniProt P32851)
Experiment: immunostaining of cells or tissue; PC12 membrane sheets incubated in buffer at 37 °C for increasing periods before fixation, immunostained for Munc18–1; no re-binding (large volume of buffer); trace fitted to a double-exponential decay

Sequence of UniProt P32851 (P32851 whole entry): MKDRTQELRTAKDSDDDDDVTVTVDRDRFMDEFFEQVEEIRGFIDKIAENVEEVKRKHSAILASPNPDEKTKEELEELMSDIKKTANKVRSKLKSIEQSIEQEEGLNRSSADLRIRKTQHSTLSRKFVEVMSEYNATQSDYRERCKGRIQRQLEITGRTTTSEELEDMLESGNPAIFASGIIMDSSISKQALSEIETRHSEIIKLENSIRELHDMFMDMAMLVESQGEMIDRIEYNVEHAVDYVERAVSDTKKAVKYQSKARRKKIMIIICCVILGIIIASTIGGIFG

“Munc18–1 (from UniProt P61765 1-594) (natural protein)” showed a half-time of dissociation from the membrane, fast component of a double-exponential decay of 5 s and a half-time of dissociation from the membrane, slow component of a double-exponential decay of 1000 s.
